In patent US7803382B2, “Method for inducing immune response to NY-CO-58” (Ludwig Institute for Cancer Research Ltd., priority 2001, dated 2010):

Test system: sera from colon cancer patients
Experiment: Spot assay: reactivity of serologically defined colon cancer antigens with colon cancer patient sera
Type: binding, human
Details: reactive sera/sera tested; includes autologous where applicable; sera 1:200
Experimental: Serum samples from patients with colon cancer were screened using a modification of the plaque assay, termed a spot assay. In this method, 80×120 mm nitrocellulose membranes were precoated with a film of NZY/0.7% Agarose/2.5 mM IPTG and placed on a reservoir layer of NZY/0.7% Agarose in a 86×128 mm Omni Tray (Nalge Nunc International Corp., Naperville, Ill.). Approximately 1.0×10^5 pfU of monoclonal phage encoding individual serologically defined colon cancer antigens, in a volume of 20 μl, were mixed with 20 μl of exponentially growing E. coli XL-1 Blue MRF and spotted (0.7-μl aliquots) on the precoated nitrocellulose membranes. Membranes were incubated for 15 hours at 37° C. A total of 75 different serologically defined colon cancer antigens were spotted in duplicate per nitrocellulose membrane. The agarose film was then removed from the membrane and the filters were processed for reactivity with individual serum samples (1:200 dilution), as described in Scanlan, et al., Int. J. Cancer 76:652-658 (1998) and Scanlan, et al., Int. J. Cancer 83:456-64, (1999).

B1: TNKL (BC-203): serologically defined colon cancer antigen, protein SEQ ID NO:26 (protein, listed as Homo sapiens)
chain: QGAQRGARVGAAMGLRRSGDSREPSGPGPERVFSGGPRPPARGAGAPAPVAGAVAGCGGGQDHVGSPLRRRGSGLRDAAAEAVEPAARELFEACRNGDVERVKRLVTPEKVNSRDTAGRKSTPLHFAAGFGRKDVVEYLLQNGANVQARDDGGLIPLHNACSFGHAEVVNLLLRHGADPNARDNWNYTPLHEAAIKGKIDVCIVLLQHGAEPTIRNTDGRTALDLADPSAKAVLTGEYKKDELLESARSGNEEKMMALLTPLNVNCHASDGRKSTPLHLAAGYNRVKIVQLLLQHGADVHAKDKGDLVPLHNACSYGHYEVTELLVKHGACVNAMDLWQFTPLHEAASKNRVEVCSLLLSYGADPTLLNCHNKSAIDLAPTPQLKERLAYEFKGHSLLQAAREADVTRIKKHLSLEMVNFKHPQTHETALHCAAASPYPKRKQICELLLRKGANINEKTKEFLTPLHVASEKAHNDVVEVVVKHEAKVNALDNLGQTSLHRAAYCGHLQTCRLLLSYGCDPNIISLQGFTALQMGNENVQQLLQEGISLGNSEADRQLLEAAKAGDVETVKKLCTVQSVNCRDIEGRQSTPLHFAAGYNRVSVVEYLLQHGADVHAKDKGGLVPLHNACSYGHYEVAELLVKHGAVVNVADLWKFTPLHEAAAKGKYEICKLLLQHGADPTKKNRDGNTPLDLVKDGDTDIQDLLRGDAALLDAAKKGCLARVKKLSSPDNVNCRDTQGRHSTPLHLAAGYNNLEVAEYLLQHGADVNAQDKGGLIPLHNAASYGHVDVAALLIKYNACVNATDKWAFTPLHEAAQKGRTQLCALLLAHGADPTLKNQEGQTPLDLVSADDVSALLTAAMPPSALPSCYKPQVLNGVRSPGATADALSSGPSSPSSLSAASSLDNLSGSFSELSSVVSSSGTEGASSLEKKEVPGVDFSITQFVRNLGLEHLMDIFEREQITLDVLVEMGHKELKEIGINAYGHRHKLIKGVERLISGQQGLNPYLTLNTSGSGTILIDLSPDDKEFQSVEEEMQSTVREHRDGGHAGGIFNRYNILKIQKVCNKKLWERYTHRRKEVSEENHNHANERMLFHGSPFVNAIIHKGFDERHAYIGGMFGAGIYFAENSSKSNQYVYGIGGGTGVQFTKTDLVTFATAAALLPGNLGKVFPAVQCNENGTSPPGHHSVTGRPSVNGLALAEYVIYRGEQAYPEYLITYQIMRPEGMVDG
Reactivity of individual antigens: 6/75
